The target of assay [1] is HIV-1 92UG037-08 gp120 (HIV-1 strain 92UG037-08). Nature of the assay: SPR (Biacore 3000); peptide over immobilized gp120. Background: SPR reads the build-up and loss of mass on a sensor chip optically.
Assay [2] deals with HIV-1 SF162 gp120 (HIV-1 strain SF162), P19550. Nature of the assay: SPR (Biacore 3000); peptide over immobilized gp120.

B1: HNG-156 (peptide)
peptide: RINNIPWSEAMM
modifications: not checked
Take B1: the Kd in assay [1] stood at 16.3 nM; in assay [2] it was 9 nM.

B2: HNG-105 (peptide)
peptide: RINNIPWSEAMM
modifications: not checked
As to B2, the Kd in assay [1] is 1840 nM; in assay [2], 70.5 nM.

The Kd is the equilibrium constant for the complex coming apart. Low readings indicate higher affinity, high ones lower affinity.

These data come from patent US20100216721A1.
